The results in this text go back to paper PMC6202311.

Series [1] deals with RNase E NTD WT (Escherichia coli). The series is described as follows: BLI. Particulars: 3' U-biotin ligated, BLI: 25 mM HEPES pH 7.0, 150 mM NaCl, 100 mM KCl, 10 mM CaCl2, 0.5 mM TCEP, RNA immobilised on streptavidin sensors, protein 0-500 nM, temperature not stated.
In series [2] the test system is RNase E NTD 8x mutant (Escherichia coli). The series is described as follows: BLI. Particulars: 5' monophosphate; 3' U-biotin ligated; BLI: 25 mM HEPES pH 7.0, 150 mM NaCl, 100 mM KCl, 10 mM CaCl2, 0.5 mM TCEP; RNA immobilised on streptavidin sensors, protein 0-500 nM; temperature not stated.

The Kd is the constant that tells how readily two partners part at equilibrium. For the substance RprA 5'-monophosphate, the dissociation constant (Kd) stood at 15.6 nM in series [1] (5' monophosphate) and 47 nM in series [2].

RprA 5'-triphosphate: the Kd in series [1] (5' triphosphate) is 8.6 nM.
